According to patent US20160266124A1 (published 2016):

B1: pHP1 (other)
chain: VDSGNDVTDIADDGCPKPPEIAHGYVEHSVRYQCKNYYKLRTEGDGVYTLNNEKQWINKAVGDKLPECEAVCGKPKNPANPVQRILGGHLDAKGSFPWQAKMVSHHNLTTGATLINEQWLLTTAKNLFLNHSENATAKDIAPTLTLYVGKKQLVEIEKVVLHPNYSQVDIGLIKLKQKVSVNERVMPICLPSKDYAEVGRVGYVSGWGRNANFKFTDHLKYVMLPVADQDQCIRHYEGSTVPEKKTPKSPVGVQPILNEHTFCAGMSKYQEDTCYGDAGSAFAVHDLEEDTWYATGILSFDKSCAVAEYGVYVKVTSIQDWVQKTIAEN
B2: pHP2 (other)
chain: VDSGNDVTDIADDGCPKPPEIAHGYVEHSVRYQCKNYYKLRTEGDGVYTLNDKKQWINKAVGDKLPECEADDGCPKPPEIAHGYVEHSVRYQCKNYYKLRTEGDGVYTLNNEKQWINKAVGDKLPECEAVCGKPKNPANPVQRILGGHLDAKGSFPWQAKMVSHHNLTTGATLINEQWLLTTAKNLFLNHSENATAKDIAPTLTLYVGKKQLVEIEKVVLHPNYSQVDIGLIKLKQKVSVNERVMPICLPSKDYAEVGRVGYVSGWGRNANFKFTDHLKYVMLPVADQDQCIRHYEGSTVPEKKTPKSPVGVQPILNEHTFCAGMSKYQEDTCYGDAGSAFAVHDLEEDTWYATGILSFDKSCAVAEYGVYVKVTSIQDWVQKTIAENHHHHHH

Biological target: 15F12
Test: SPR

Binder | Kd
B1 | 300 pM
B2 | 300 pM
